From patent US20100068742
Entries after “also recorded” stand apart in the source; their conditions may differ.

Assays:
[1] = tested on: Nictide peptides with combined -5, -4 and -1 mutations
[2] = tested on: LRRKtide with the +5 residue mutated to Glu
[3] = tested on: Nictide with the phosphorylated Thr mutated to Ser
[4] = tested on: Nictide with -1 Tyr mutated to Ala
[5] = tested on: LRRKtide with -4 (Asp) mutated to Ala
[6] = tested on: LRRKtide with the +2 residue mutated to Glu
[7] = tested on: Nictide with -4Trp mutated to Ala
[8] = tested on: Nictide with Thr residues at both the -2 and +2 positions
[9] = tested on: T1, Nictide (RLGWWRFYTLRRARQGNTKQR)
T1 sequence: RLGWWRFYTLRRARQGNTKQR

[10] = tested on: Nictide with -5Trp mutated to Ala
[11] = tested on: LRRKtide with the +2 residue mutated to Pro
[12] = tested on: LRRKtide with +5Arg mutated to Ala
[13] = tested on: LRRKtide with +2Arg mutated to Ala
[14] = tested on: Nictide with +1Leu mutated to Pro
[15] = tested on: LRRKtide with -5Arg mutated to Ala
[16] = tested on: LRRKtide with -2Tyr mutated to Arg
[17] = tested on: LRRKtide with -2Tyr mutated to Glu
[18] = tested on: LRRKtide with -2Tyr mutated to Ala
[19] = tested on: Nictide with +2 Arg mutated to Ala
[20] = tested on: Nictide with Thr introduced at the -2 position
[21] = tested on: LRRKtide with the +5 residue mutated to Pro
[22] = tested on: Nictide with Thr introduced at the +2 position
[23] = tested on: T2, LRRKtide peptide (RLGRDKYKTLRQIRQ)
T2 sequence: RLGRDKYKTLRQIRQ

[24] = tested on: LRRKtide with +1Leu mutated to Ala

## GST-LRRK2 1326-2527 [G2019S]
[1]
  fold increase of Km against Nictide: the Km values were substantially increased 5 to 20-fold compared to Nictide
[2]
  Km against wild type LRRKtide: increased Km similarly to the Ala mutation
  fold decrease of Vmax against wild type LRRKtide: +5 Arg (mutation to Glu 4-fold)
[3]
  peptide phosphorylation: almost abolished phosphorylation of the peptide by LRRK2
[4]
  fold increase of Km against Nictide: increased Km values 2 to 3-fold
  fold increase of Vmax against Nictide: enhanced Vmax of LRRK2 phosphorylation ~2-fold
[5]
  fold decrease of Km against wild type LRRKtide: decreasing Km 2.3-fold
[6]
  Km against wild type LRRKtide: increased Km similarly to the Ala mutation
  fold decrease of Vmax against wild type LRRKtide: +2 Arg (4 to 28-fold)
[7]
  fold decrease of Vmax against Nictide: decreased the Vmax value of phosphorylation 2 to 5-fold
  fold increase of Km against Nictide: increased Km values 2 to 3-fold
  fold increase of Vmax against Nictide: enhanced Vmax of LRRK2 phosphorylation ~2-fold
[8]
  fold increase of Km against Nictide: increased Km value of over 10-fold
[9]
  Km of peptide phosphorylation: Calculated Km values are 6micromolar for Nictide; also recorded: Km of 10 µM
  Vmax of peptide phosphorylation: Vmax of 26 U/mg
  fold decrease of Km against LRRKtide: 20-fold lower than LRRKtide
  fold increase of Vmax against LRRKtide: 1.7-fold higher than LRRKtide
[10]
  fold increase of Km against Nictide: increasing the Km value 3-fold
  fold increase of Vmax against Nictide: enhanced Vmax of LRRK2 phosphorylation ~2-fold
[11]
  Km against wild type LRRKtide: increased Km similarly to the Ala mutation
  fold decrease of Vmax against wild type LRRKtide: +2 Arg (4 to 28-fold)
[12]
  fold increase of Km against wild type LRRKtide: +5Arg (4-fold)
[13]
  fold decrease of Vmax against wild type LRRKtide: +2 Arg (4 to 28-fold)
  fold increase of Km against wild type LRRKtide: +2Arg (4.5-fold)
[14]
  Km against Nictide: without affecting Km
  fold decrease of Vmax against Nictide: only decreased Vmax of LRRK2 phosphorylation under 2-fold
[15]
  fold increase of Km against wild type LRRKtide: -5Arg (2.5 fold)
GST-Nictide
  phosphorylation of GST fusion proteins (32P autoradiography): phosphorylated to a significantly greater extent by LRRK2 than the other GST-fusion proteins
[16]
  Km against wild type LRRKtide: slightly decreased Km
  fold decrease of Vmax against wild type LRRKtide: -2 Tyr (2 to 10-fold)
[17]
  fold decrease of Vmax against wild type LRRKtide: -2 Tyr (2 to 10-fold)
  fold increase of Km against wild type LRRKtide: increased Km 4.4-fold
[18]
  fold decrease of Vmax against wild type LRRKtide: -2 Tyr (2 to 10-fold)
  fold increase of Km against wild type LRRKtide: -2Tyr (2.4-fold)
[19]
  fold decrease of Vmax against Nictide: decreased the Vmax value of phosphorylation 2 to 5-fold
[20]
  Km and Vmax against Nictide: moderately increased the Km and reduced the Vmax value
[21]
  Km against wild type LRRKtide: increased Km similarly to the Ala mutation
[22]
  Km and Vmax against Nictide: moderately increased the Km and reduced the Vmax value
[23]
  Km of peptide phosphorylation: Km of 200 µM
  Vmax of peptide phosphorylation: Vmax of 14 U/mg
[24]
  fold decrease of Vmax against wild type LRRKtide: +1Leu (2-fold)
  peptide phosphorylation: had no effect on LRRK2 phosphorylation
